# Experimental data taken from patent US12653863B2, “FGF21 compositions for treatment or prevention of neovascularization of the eye and methods therefor” (Children's Medical Center Corporation, priority 2017, dated 2026).
# B1: Native FGF21: native FGF21 (nFGF21), unmodified FGF21 with short half-life (protein, UniProt Q9NSA1 29-209, looked up)
# Fibroblast growth factor 21: HPIPDSSPLLQFGGQVRQRYLYTDDAQQTEAHLEIREDGTVGGAADQSPESLLQLKALKPGVIQILGVKTSRFLCQRPDGALYGSLHFDPEACSFRELLLEDGYNVYQSEAHGLPLHLPGNKSPHRDPAPRGPARFLPLPGLPPALPEPPGILAPQPPDVGSSDPLSMVGPSQGRSPSYAS
# Assays:
# 661W cells = assay: 661W photoreceptor cells with paraquat-induced oxidative stress; assay type: cell-based; conditions: PQ-treated 661W, co-treatment with 500 ng/ml PF-05231023, perifosine 5 or 10 μM
# Method: Photoreceptors (661W) cell culture: Photoreceptor 661W cells were cultured at 37° Celsius, 5% CO2 in a humidified atmosphere in Dulbecco's modified Eagle's medium (DMEM, #1196502, Gibco) supplemented with 10% fetal bovine serum (#S12450, Atlanta Biologicals) and 1% antibiotic/antimycotic solution. An equal number of cells per well was plated on a 6-well dish. Oxidative stress was induced with 0.5 mM paraquat (PQ, Sigma, #856177) for 1 hour at 37° Celsius. The culture media were changed and the cells were treated with vehicle (PBS) or 500 ng/ml PF-05231023 for 24 hours. Cells were collected for protein and RNA.
# Real-time PCR: Retinas or 661W cells were lysed with QIAzol lysis reagent and incubated on ice for 15 minutes. 20% chloroform was added and incubated for 5 minutes at room temperature. […] Quantitative analysis of gene expression was generated using an Applied Biosystems 7300 Sequence Detection System with the SYBR Green Master mix kit and gene expression was calculated relative to Cyclophilin A ((5′-CAG ACG CCA CTG TCG CTT T-3′ (SEQ ID NO: 30); 5′-TGTCTTTGGAACTTTGTCTGCAA-3′(SEQ ID NO: 31)) (retinas) or β-actin ((5′-CGGTTCCGATGCCCTGAGGCTCTT-3′ (SEQ ID NO: 48), 5′-CGTCACACTTCATGATGGAATTGA-3′ (SEQ ID NO: 49)) (photoreceptor 661W cells) using the ΔΔCt method. Each sample was repeated in triplicate. […]
# HRMEC = HRMEC wound healing and cell viability assays; assay type: cell-based; conditions: in vitro, FIG. 7C-7D
# [1] = Huang et al., 2013; cited from earlier work
# [2] = tested on: mice having oxygen-induced retinopathy; assay: mouse oxygen-induced retinopathy (OIR), retinal whole mounts and retinal qPCR at P17; assay type: in vivo; conditions: WT OIR mice, i.p. daily P12-P16, P17 retinal whole mounts, vs vehicle
# Method: Oxygen-induced retinopathy: mice were exposed to 75% oxygen from P7 to P12. The mice were then returned to room air until P17 (Connor et al., 2009; Smith et al., 1994). High oxygen led to vessel loss and the relative hypoxia induced neovascularization which reached to maximum at P17 (Smith et al., 1994). Both genders of mouse pups were used with body weight ranging from 5.5 to 7 grams (Connor et al., 2009). The mice were randomly assigned to either native FGF21 (5 mg/kg, twice per day) or long-acting FGF21 (1 mg/kg PF-05231023) or phosphate buffered saline (PBS). The mice were intraperitoneally injected daily from P12 to P16. For the intra-vitreal injection of PF-05231023 (0.5 μl 10 μg/μl stock per eye) was delivered using 10 μl syringe with 35G needle (World Precision Instruments, Inc.) at P12. The contralateral eye was injected with vehicle control. At P17, retinal neovascularization was quantified (Connor et al., 2009; Smith et al., 1994). […] Retinal neovascularization was quantified as previously reported (Connor et al., 2009). Percentages of neovascularization were calculated by comparing the number of pixels in the neovascular areas with the total number of pixels in the retina. n is the number of eyes quantified. […]
# [3] = tested on: hyperglycemic mouse neonates; assay: streptozotocin (STZ)-induced hyperglycemic ROP mouse model; assay type: in vivo
# Excerpt: Hyperglycemia is a recently described risk factor for retinopathy of prematurity (ROP) in premature infants. In streptozotocin (STZ)-induced hyperglycemic ROP mouse model, retinal vascular development was confirmed as delayed. Specifically, FGF21 deficiency delayed normal retinal vascular network formation and worsened hyperglycemic ROP in such mice. Native (nFGF21) and long-acting FGF21 (PF-05231023) treatment were both observed to have promoted retinal vessel growth in hyperglycemic ROP. The protection of FGF21 observed was also confirmed as dependent upon adiponectin (APN).
molecule,measurement,setting,value
CCCCCCCCCCCCCCCCCCOP(=O)([O-])OC1CC[N+](C)(C)CC1 [perifosine],induction of NRF2 expression by PF-05231023,661W cells,dose-dependently inhibited
O=C(COc1ccc(C(=O)c2ccccc2)cc1)NC1CCN(Cc2ccccc2)CC1 [AdipoRon],"endothelial cell function (wound healing, viability)",HRMEC,inhibited endothelial cell function in vitro
B1,half-life,[1],24 min
same,retinal neovascularization,[2],did not affect neovascularization
same,retinal vascular growth,[3],improved retinal vascular growth
